The values below are quoted from earlier work in publication PMC5382571.

Where two headings read alike, the source gives them in different places.

For series [1], the target named is PCNA (Homo sapiens) (UniProt P12004).
For series [2] the target is unchanged. This is another data set of the same source.

Chain of UniProt P12004 (P12004 whole entry): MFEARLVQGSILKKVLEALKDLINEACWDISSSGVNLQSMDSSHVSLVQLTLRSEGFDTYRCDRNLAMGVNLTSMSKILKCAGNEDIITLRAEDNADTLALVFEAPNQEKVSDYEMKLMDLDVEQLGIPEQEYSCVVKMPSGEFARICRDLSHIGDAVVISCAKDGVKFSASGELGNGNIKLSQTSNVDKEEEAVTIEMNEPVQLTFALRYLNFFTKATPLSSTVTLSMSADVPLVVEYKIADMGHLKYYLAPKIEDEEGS

Turning to RFC (from UniProt P35251), the Kd (usually the concentration at which binding is half-saturated) with PCNA (Homo sapiens) [1] is 0.2 nM.

In the case of “DNA polymerase delta (from UniProt P28340)”, in the series with PCNA (Homo sapiens) [2], the Kd is below 10 nM.
